Data reported in patent publication US20260201008A1, “SECRETIN-DERIVED GLP1R SELECTIVE AGONISTS” (GUBRA A/S, priority 2023, published 2026).
Read-outs that look alike come from different tables or passages of the source. Numbered stars: 1 amine (or outer) side, 2 acyl side, 3 side chain; on linkers, the order of the positions; unused ones are H or OH. Square brackets hold non-standard residues; d marks the D form. Side chains are listed from the residue outwards. Ends that are not written are not given here. * marks the point of attachment. C20 diacid = O=C(O)CCCCCCCCCCCCCCCCCCC(=O)*; C18 diacid = O=C(O)CCCCCCCCCCCCCCCCC(=O)*; γGlu = O=C(O)[C@H](CCC(=O)[*:2])N[*:1]; AEEA = NCCOCCOCC(=O)O; Aib = CC(C)(N)C(=O)O

Assays:
Test in all cases: cell-based or functional assay
[1] = molecular target: T1, human secretin receptor (hSCTR) (human, UniProt P47872 23-440)
[2] = molecular target: T2, human GLP-1 receptor (hGLP1R) (human, UniProt P43220 24-463)
[3] = molecular target: T1, human secretin receptor (hSCTR); remark: listed apart in the source
[4] = molecular target: T2, human GLP-1 receptor (hGLP1R); remark: listed apart in the source
[5] = molecular target: T1, human secretin receptor (hSCTR); remark: listed apart in the source
[6] = molecular target: T2, human GLP-1 receptor (hGLP1R); remark: listed apart in the source

T1 sequence (P47872 23-440): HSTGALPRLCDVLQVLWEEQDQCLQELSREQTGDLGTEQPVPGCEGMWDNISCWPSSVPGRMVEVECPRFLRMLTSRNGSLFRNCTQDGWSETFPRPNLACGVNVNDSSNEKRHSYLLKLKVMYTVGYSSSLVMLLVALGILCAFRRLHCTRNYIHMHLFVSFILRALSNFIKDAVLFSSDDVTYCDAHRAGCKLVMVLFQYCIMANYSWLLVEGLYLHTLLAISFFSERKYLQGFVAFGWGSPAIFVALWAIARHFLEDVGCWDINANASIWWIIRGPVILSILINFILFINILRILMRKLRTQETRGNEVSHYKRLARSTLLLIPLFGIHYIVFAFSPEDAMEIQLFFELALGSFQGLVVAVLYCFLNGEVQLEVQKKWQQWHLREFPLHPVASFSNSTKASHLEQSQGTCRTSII

Binder	pEC50 hSCTR [1]	pEC50 hGLPR1 [2]	further results
H[Aib]EGTFTSDVSFLK([AEEA-AEEA-γGlu-C20 diacid])EEAASQRFLEHLV-NH2 [SEQ ID NO: 38]	6 -log M	10.5 -log M	–
H[Aib]EGTFTSDVSTLK([AEEA-AEEA-γGlu-C20 diacid])ETAAEQRFLEHLV-NH2 [SEQ ID NO: 42]	5.5 -log M	10.8 -log M	–
H[Aib]EGTFTSDVSELK([AEEA-AEEA-γGlu-C20 diacid])EEA[Aib]LQRFLEHLV-NH2 [SEQ ID NO: 168]	7.3 -log M	11.2 -log M	hSCTR EC50 nM (purified peptide) [3]: 100 nM; hSCTR pEC50 (purified peptide) [3]: 7 -log M; hGLPR1 EC50 nM (purified peptide) [4]: 0.012 nM; hGLPR1 PEC50 (purified peptide) [4]: 10.9 -log M
H[Aib]EGTFTSDVSRLK([AEEA-AEEA-γGlu-C18 diacid])EGAAEQRFLQHLVEAA-NH2 [SEQ ID NO: 205]	–	–	pEC50 hSCTR [5]: 5.3 -log M; PEC50 hGLPR1 [6]: 11.1 -log M
H[Aib]EGTFTSDVSRLK([AEEA-AEEA-γGlu-C20 diacid])ETAAEQRFLEHLV-NH2 [SEQ ID NO: 34]	6.4 -log M	10.6 -log M	–
H[Aib]EGTFTSDVSRLK([AEEA-AEEA-γGlu-C20 diacid])EEAALQRFLEHLVEAA-NH2 [SEQ ID NO: 207]	–	–	pEC50 hSCTR [5]: 8.2 -log M; PEC50 hGLPR1 [6]: 11 -log M
H[Aib]EGTFTSDVSELK([AEEA-AEEA-γGlu-C20 diacid])EFAAEQRFLEHLV-NH2 [SEQ ID NO: 31]	5.2 -log M	10.4 -log M	–
H[Aib]EGTFTSDVSVLK([AEEA-AEEA-γGlu-C20 diacid])ETAAQQRFLEHLV-NH2 [SEQ ID NO: 41]	6.9 -log M	11.1 -log M	–
H[Aib]EGTFTSDVSVLK([AEEA-AEEA-γGlu-C20 diacid])ELAAQQRFLEHLV-NH2 [SEQ ID NO: 33]	6.5 -log M	10.2 -log M	–
H[Aib]EGTFTSDVSYLK([AEEA-AEEA-γGlu-C20 diacid])ETAATQRFLEHLV-NH2 [SEQ ID NO: 4]	7 -log M	11.1 -log M	–
H[Aib]EGTFTSDVSRLK([AEEA-AEEA-γGlu-C18 diacid])EGAAEQRFLQHLVEAE-NH2 [SEQ ID NO: 204]	–	–	pEC50 hSCTR [5]: 5.6 -log M; PEC50 hGLPR1 [6]: 11 -log M
H[Aib]EGTFTSDVSYLK([AEEA-AEEA-γGlu-C20 diacid])EEA[Aib]LQRFLEHLV-NH2 (also: table footnote: C20DA or C18DA) [SEQ ID NO: 203]	6.7 -log M	10.7 -log M	hSCTR EC50 nM (purified peptide) [3]: 190 nM; hSCTR pEC50 (purified peptide) [3]: 6.7 -log M; hGLPR1 EC50 nM (purified peptide) [4]: 0.017 nM; hGLPR1 PEC50 (purified peptide) [4]: 10.8 -log M
H[Aib]EGTFTSDVSYLK([AEEA-AEEA-γGlu-C20 diacid])EEAAQQRFLEHLV-NH2 [SEQ ID NO: 47]	6.6 -log M	10.8 -log M	–
H[Aib]EGTFTSDVSTLK([AEEA-AEEA-γGlu-C20 diacid])EEAAQQRFLEHLV-NH2 [SEQ ID NO: 39]	6.5 -log M	10.8 -log M	–
H[Aib]EGTFTSDVSRLK([AEEA-AEEA-γGlu-C20 diacid])EEA[Aib]LQRFLEHLVEAA-NH2 [SEQ ID NO: 208]	–	–	pEC50 hSCTR [5]: 7.6 -log M; PEC50 hGLPR1 [6]: 10.6 -log M; hSCTR EC50 nM (purified peptide) [3]: 24 nM; hSCTR pEC50 (purified peptide) [3]: 7.6 -log M; hGLPR1 EC50 nM (purified peptide) [4]: 0.022 nM; hGLPR1 PEC50 (purified peptide) [4]: 10.6 -log M
H[Aib]EGTFTSDVSELK([AEEA-AEEA-γGlu-C20 diacid])ELAAEQRFLEHLV-NH2 [SEQ ID NO: 36]	6.5 -log M	10.5 -log M	–
H[Aib]EGTFTSDVSYLK([AEEA-AEEA-γGlu-C20 diacid])E[Aib]AATQRFLEHLV-NH2 [SEQ ID NO: 48]	6.9 -log M	10.6 -log M	–
H[Aib]EGTFTSDVSTLK([AEEA-AEEA-γGlu-C20 diacid])EEA[Aib]LQRFLEHLVEAA-NH2 [SEQ ID NO: 211]	–	–	pEC50 hSCTR [5]: 7.1 -log M; PEC50 hGLPR1 [6]: 11.2 -log M
H[Aib]EGTFTSDVSVLK([AEEA-AEEA-γGlu-C20 diacid])EEAA[Aib]QRFLEHLV-NH2 [SEQ ID NO: 35]	6.1 -log M	10.8 -log M	–
H[Aib]EGTFTSDVSELLEEA[Aib]LQRFLEK([AEEA-AEEA-γGlu-C20 diacid])LVEAA-NH2 [SEQ ID NO: 214]	–	–	pEC50 hSCTR [5]: 6.1 -log M; PEC50 hGLPR1 [6]: 10.9 -log M
H[Aib]EGTFTSDVSTLK([AEEA-AEEA-γGlu-C20 diacid])E[Aib]AA[Aib]QRFLEHLV-NH2 [SEQ ID NO: 32]	6.2 -log M	10.6 -log M	–
H[Aib]EGTFTSDVSTLK([AEEA-AEEA-γGlu-C20 diacid])E[Aib]AAAQRFLEHLV-NH2 [SEQ ID NO: 43]	6.5 -log M	11 -log M	–
H[Aib]EGTFTSDVSFLK([AEEA-AEEA-γGlu-C20 diacid])ETAAAQRFLEHLV-NH2 [SEQ ID NO: 44]	5.4 -log M	10.5 -log M	–
H[Aib]EGTFTSDVSVLK([AEEA-AEEA-γGlu-C20 diacid])E[Aib]AATQRFLEHLV-NH2 [SEQ ID NO: 49]	6.9 -log M	10.7 -log M	–
H[Aib]EGTFTSDVSVLK([AEEA-AEEA-γGlu-C20 diacid])E[Aib]AAQQRFLEHLV-NH2 [SEQ ID NO: 40]	6.4 -log M	10.7 -log M	–
H[Aib]EGTFTSDVSRLK([AEEA-AEEA-γGlu-C18 diacid])EGAAEQRFLQHLVAAE-NH2 [SEQ ID NO: 206]	–	–	pEC50 hSCTR [5]: 5.3 -log M; PEC50 hGLPR1 [6]: 10.8 -log M
H[Aib]EGTFTSDVSYLK([AEEA-AEEA-γGlu-C20 diacid])EFAA[Aib]QRFLEHLV-NH2 [SEQ ID NO: 46]	5.4 -log M	10.3 -log M	–
H[Aib]EGTFTSDVSFLK([AEEA-AEEA-γGlu-C20 diacid])EEAA[Aib]QRFLEHLV-NH2 [SEQ ID NO: 37]	5.7 -log M	10.9 -log M	–
H[Aib]EGTFTSDVSRLK([AEEA-AEEA-γGlu-C20 diacid])EEA[Aib]AQRFLEHLVEAA-NH2 [SEQ ID NO: 215]	–	–	pEC50 hSCTR [5]: 6.3 -log M; PEC50 hGLPR1 [6]: 11 -log M
H[Aib]EGTFTSDVSELK([AEEA-AEEA-γGlu-C20 diacid])ETAA[Aib]QRFLEHLV-NH2 [SEQ ID NO: 45]	5.7 -log M	10.7 -log M	–
